The values below come from patent US20240116987A1 (UNIVERSIT CATHOLIQUE DE LOUVAIN, published 2024).

Data set [1] deals with T1, LDH-Htr (truncated human LDH-H, dimeric) (human, UniProt A5A6N7 21-334 (Pan troglodytes entry)).
T1 construct: Recombinant from E. coli; Mainly a dimer, in equilibrium with a weak tetramer; In MST it was labelled with Red-dye-NHS and used at 100 nM; also called hLDH-Htr; truncated LDH-H; not shown: N-terminal 6-His tag from pET-28a (NdeI site)
Briefly: MST, labelled LDH-Htr 100 nM, 1.5 s on time, n=3. On the procedure:
MST measurements were performed on a Nanotemper® Monolith NT.115 instrument (NanoTemper Technologies®) using Red-dye-NHS fluorescent labelling. […] Measurements were performed in 50 mM sodium phosphate, pH 7.6, and 100 mM NaCl containing 0.01% Tween-20 in standard-treated capillaries (NanoTemper Technologies®). The final concentration of proteins in the assay was 100 nM. Ligands were titrated in 1:1 dilutions following manufacturer's recommendations. Experiments were performed in triplicates using 40% LED power, high MST power, […] and Laser off time 3 s. Poypeptides were evaluated for their thermophoretic pattern, and Kd's were extracted from raw data at a 1.5 s MST on time following the manufacturer's instructions.

Data set [2] concerns the target LDH-5 (tetramer of human LDH-M subunits, LDH-M4) (human, UniProt P00338 2-332). Put plainly: cell-based or functional assay.

Ends that are not written are not given here.

T1 sequence (A5A6N7 21-334): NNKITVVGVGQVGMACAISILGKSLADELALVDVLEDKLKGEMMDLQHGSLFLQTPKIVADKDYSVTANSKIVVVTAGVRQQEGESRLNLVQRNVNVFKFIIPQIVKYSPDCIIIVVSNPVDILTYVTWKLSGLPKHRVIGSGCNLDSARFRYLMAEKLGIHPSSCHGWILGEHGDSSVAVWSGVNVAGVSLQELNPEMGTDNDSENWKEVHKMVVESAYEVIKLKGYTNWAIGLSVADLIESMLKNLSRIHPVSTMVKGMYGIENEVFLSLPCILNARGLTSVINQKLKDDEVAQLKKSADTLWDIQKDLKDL

As a reminder, the Kd is a measure of binding affinity in units of concentration. Molecule Ac-GEMMDLQHGSLFLQTP-NH2 (Synthetic peptide bought from Genecust) [polypeptide GP-16] registered a Kd in data set [1] of 240 µM. Moreover, the “EC50 of ΔTm (NanoDSF destabilization) of tetrameric LDH-5 (300 nM)” value in data set [2] is 262 µM.

B1: polypeptide LP-22 (peptide)
peptide: LEDKLKGEMMDLQHGSLFLQTP-NH2
notes: Synthetic peptide bought from Genecust; also called "cluster B1"-derived polypeptide
For the molecule B1, binding in data set [1] was put at a Kd of 156 µM.
